Experimental data from US11780912 (dated 2023).

Columns and labels:
human IL-8 [1] = target: human IL-8 (human); experiment: SPR, pH 5.8, 37C
human IL-8 [2] = target: human IL-8 (human); experiment: SPR, pH 7.4, 37C
human IL-8 [3] = target: human IL-8 (human); experiment: SPR, pH 5.8
human IL-8 [4] = target: human IL-8 (human); experiment: SPR, pH 7.4
human IL-8 [5] = target: human IL-8 (human); experiment: SPR, pH 5.8, 37C; remark: listed apart in the source
human IL-8 [6] = target: human IL-8 (human); experiment: SPR, pH 5.8; remark: listed apart in the source
human IL-8 [7] = target: human IL-8 (human); experiment: SPR, pH 7.4; remark: listed apart in the source

human IL-8 (human), sequence (chain, as listed by the source): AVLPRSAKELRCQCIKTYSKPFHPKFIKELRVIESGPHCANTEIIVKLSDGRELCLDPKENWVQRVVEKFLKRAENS

B1: H89/L16 (antibody, V domains shown)
VH: QVQLVESGGGLVQPGGSLRLSCAASGFTFSDYYLSWVRQAPGKGLEWVGLIRNKANGYTREYSASVKGRFTISRDDSKNSLYLQMSSLKTEDTAVYYCARENHRYDVELAYWGQGTLVTVSS
VL: DIQMTQSPSSLSASVGDRVTITCRASEIIYSYLAWYQQKPGKAPKLLIYNAKTHADGVPSRFSGSGSGTDFTFTISSLQPEDIATYYCQHHFGFPRTFGQGTKVEIKR
Kd (human IL-8 [1]): 35.1 nM
Kd (human IL-8 [2]): 0.699 nM

B2: H1009/L395 (antibody, V domains shown)
VH: QVQLVESGGGLVQPGGSLRLSCAASGFTFSDYYLSWVRQAPGKGLEWVGLIRNKDNYHTPEYSASVKGRFTISRDDSKNSLYLTMSDLKTEDTAVYYCARENHRYDVELAYWGQGTLVTVSS
VL: DIQMTQSPSSLSASVGDRVTITCRASEIIYSYLAWYQQKPGKAPKLLIYKAKTHADGVPSRFSGSGSGTDFTFTISSLQPEDIATYYCKHHFGFPRTFGQGTKVEIKR
Kd (human IL-8 [3]): 87 nM
Kd (human IL-8 [4]): 0.071 nM

B3: H89/L118 (antibody, V domains shown)
VH: QVQLVESGGGLVQPGGSLRLSCAASGFTFSDYYLSWVRQAPGKGLEWVGLIRNKANGYTREYSASVKGRFTISRDDSKNSLYLQMSSLKTEDTAVYYCARENHRYDVELAYWGQGTLVTVSS
VL: DIQMTQSPSSLSASVGDRVTITCRASEIIYSYLAWYQQKPGKAPKLLIYHAKTHADGVPSRFSGSGSGTDFTFTISSLQPEDIATYYCKHHFGFPRTFGQGTKVEIKR
Kd (human IL-8 [3]): 49 nM
Kd (human IL-8 [5]): 31.8 nM
Kd (human IL-8 [4]): 0.17 nM
Kd (human IL-8 [6]): 48.8 nM
Kd (human IL-8 [7]): 0.172 nM
Kd (human IL-8 [1]): 21.5 nM

B4: Hr9/L16 (antibody, V domains shown)
VH: QVQLVESGGGLVQPGGSLRLSCAASGFTFSDYYLSWVRQAPGKGLEWVGLIRNKANGYTREYSASVKGRFTISRDDSKNSLYLQMSSLKTEDTAVYYCARENYRYDVELAYWGQGTLVTVSS
VL: DIQMTQSPSSLSASVGDRVTITCRASEIIYSYLAWYQQKPGKAPKLLIYNAKTHADGVPSRFSGSGSGTDFTFTISSLQPEDIATYYCQHHFGFPRTFGQGTKVEIKR
Kd (human IL-8 [1]): 5.04 nM
Kd (human IL-8 [2]): 0.108 nM
